Data as given in paper PMC10616196, “A marine cryptochrome with an inverse photo-oligomerization mechanism” (Nature Communications, 2023).
Values belong to the molecule of their own block, whether it stands above or below them.

Legend:
PdLCry (L-CRY) [1] = molecular target: T1, PdLCry (L-CRY) (Platynereis dumerilii, UniProt Z9ZPX6J9J5, Y352D); assay: UV/Vis spectroscopy of FAD photoreduction; format: binding; conditions: naturalistic sunlight, on ice; pH 8.0; co-purified FAD
T1 construct: full length, N-terminal His6 tag, expressed in Sf9 insect cells (pCoofy27, baculovirus); 565 residues, model 31-556; homodimer in dark, monomer under blue light
T1 sequence (Z9ZPX6J9J5 1-565 Y352D): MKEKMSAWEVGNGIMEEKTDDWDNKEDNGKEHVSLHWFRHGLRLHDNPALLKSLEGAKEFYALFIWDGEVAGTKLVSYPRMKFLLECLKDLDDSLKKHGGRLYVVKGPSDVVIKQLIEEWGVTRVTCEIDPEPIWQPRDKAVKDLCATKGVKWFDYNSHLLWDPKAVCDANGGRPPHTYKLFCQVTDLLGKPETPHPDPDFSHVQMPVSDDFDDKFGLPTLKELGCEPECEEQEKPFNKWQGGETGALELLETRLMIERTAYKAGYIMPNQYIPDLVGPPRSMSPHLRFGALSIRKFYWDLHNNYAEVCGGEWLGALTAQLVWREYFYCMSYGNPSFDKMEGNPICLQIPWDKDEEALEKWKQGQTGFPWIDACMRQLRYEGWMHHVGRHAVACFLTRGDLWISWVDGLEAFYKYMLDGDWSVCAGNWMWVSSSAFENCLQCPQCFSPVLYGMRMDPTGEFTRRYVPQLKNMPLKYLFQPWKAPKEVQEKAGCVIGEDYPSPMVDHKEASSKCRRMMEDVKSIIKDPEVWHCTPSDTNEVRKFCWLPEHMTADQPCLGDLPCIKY

PdLCry (L-CRY) [2] = molecular target: T2, PdLCry (L-CRY) (Platynereis dumerilii, UniProt Z9ZPX6J9J5); assay: cryo-EM structure of the complex, […] A; format: binding; conditions: dark state, far-red light; pH 8.0; homodimer; near stoichiometric FAD occupancy; non-covalent
T2 construct: full length, N-terminal His6 tag, expressed in Sf9 insect cells (pCoofy27, baculovirus); 565 residues, model 31-556; homodimer in dark, monomer under blue light
T2 sequence (Z9ZPX6J9J5 1-565): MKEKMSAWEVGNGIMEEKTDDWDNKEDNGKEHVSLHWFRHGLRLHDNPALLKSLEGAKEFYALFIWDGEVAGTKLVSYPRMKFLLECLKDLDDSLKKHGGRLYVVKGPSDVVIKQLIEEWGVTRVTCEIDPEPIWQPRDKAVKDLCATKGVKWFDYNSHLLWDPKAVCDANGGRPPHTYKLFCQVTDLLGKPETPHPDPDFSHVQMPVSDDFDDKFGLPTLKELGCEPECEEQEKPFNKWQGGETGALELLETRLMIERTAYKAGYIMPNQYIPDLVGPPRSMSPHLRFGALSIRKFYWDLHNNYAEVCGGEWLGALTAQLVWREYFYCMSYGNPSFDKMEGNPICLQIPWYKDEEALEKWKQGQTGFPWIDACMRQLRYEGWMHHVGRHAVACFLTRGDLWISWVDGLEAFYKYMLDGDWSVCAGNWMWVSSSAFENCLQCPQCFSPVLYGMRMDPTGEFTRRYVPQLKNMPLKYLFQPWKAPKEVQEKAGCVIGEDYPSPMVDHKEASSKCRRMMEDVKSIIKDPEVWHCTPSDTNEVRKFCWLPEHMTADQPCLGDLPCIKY

PdLCry (L-CRY) [3] = molecular target: T3, PdLCry (L-CRY) (Platynereis dumerilii, UniProt Z9ZPX6J9J5, Y352A); assay: UV/Vis spectroscopy of FAD photoreduction; format: binding; conditions: naturalistic sunlight, on ice; pH 8.0; co-purified FAD
T3 construct: full length, N-terminal His6 tag, expressed in Sf9 insect cells (pCoofy27, baculovirus); 565 residues, model 31-556; homodimer in dark, monomer under blue light
T3 sequence (Z9ZPX6J9J5 1-565 Y352A): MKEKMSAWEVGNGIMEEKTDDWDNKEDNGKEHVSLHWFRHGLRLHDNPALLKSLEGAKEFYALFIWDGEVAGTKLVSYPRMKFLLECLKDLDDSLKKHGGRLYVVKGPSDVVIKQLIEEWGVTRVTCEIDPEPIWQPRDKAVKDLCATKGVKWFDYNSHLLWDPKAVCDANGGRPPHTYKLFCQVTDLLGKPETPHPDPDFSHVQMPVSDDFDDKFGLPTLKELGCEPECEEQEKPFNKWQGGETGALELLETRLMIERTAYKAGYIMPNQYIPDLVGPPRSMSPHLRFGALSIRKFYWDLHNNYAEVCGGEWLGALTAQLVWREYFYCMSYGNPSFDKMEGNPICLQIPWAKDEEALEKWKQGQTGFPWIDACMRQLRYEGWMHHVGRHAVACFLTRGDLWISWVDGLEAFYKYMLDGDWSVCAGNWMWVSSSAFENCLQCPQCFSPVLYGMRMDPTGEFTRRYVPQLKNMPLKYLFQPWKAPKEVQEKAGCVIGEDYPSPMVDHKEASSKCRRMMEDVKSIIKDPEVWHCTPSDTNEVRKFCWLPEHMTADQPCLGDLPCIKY

[4] = molecular target: Platynereis dumerilii L-CRY (PdLCry), wildtype (Platynereis dumerilii); assay: cryo-EM structure; blue light state: grids illuminated for 30 s with a 455 nm LED, vitrified within less than 5 s; 0.7 mg mL^-1 in 25 mM Bis-tris propane pH 8.0, 150 mM NaCl, 1 mM TCEP; 2D classification, C1 map filtered to 8 Å
[5] = molecular target: Platynereis dumerilii L-CRY (PdLCry), wildtype (Platynereis dumerilii); assay: SEC; analytical SEC with inline UV/Vis, Superdex 200 Increase 5/150 GL, far-red light (dark) conditions; 7 µL at 5 mg mL^-1; 25 mM Bis-tris propane pH 8.0, 150 mM NaCl, 1 mM TCEP
[6] = molecular target: Platynereis dumerilii L-CRY (PdLCry), wildtype (Platynereis dumerilii); assay: cryo-EM structure; dark state: vitrified under far-red light; 0.7 mg mL^-1 in 25 mM Bis-tris propane pH 8.0, 150 mM NaCl, 1 mM TCEP, 0.01% fluorinated octyl maltoside; 2D classification and C2 refinement
PdLCry^Y352A = molecular target: T4, PdLCry^Y352A (Platynereis dumerilii); assay: SEC; final SEC step of the purification in dark or dim red light (Superdex S200 10/300 GL or HiLoad S200 16/60; 25 mM Bis-tris propane pH 8.0, 150 mM NaCl, 5% glycerol, 1 mM TCEP); conditions: both partners purified
T4 chain: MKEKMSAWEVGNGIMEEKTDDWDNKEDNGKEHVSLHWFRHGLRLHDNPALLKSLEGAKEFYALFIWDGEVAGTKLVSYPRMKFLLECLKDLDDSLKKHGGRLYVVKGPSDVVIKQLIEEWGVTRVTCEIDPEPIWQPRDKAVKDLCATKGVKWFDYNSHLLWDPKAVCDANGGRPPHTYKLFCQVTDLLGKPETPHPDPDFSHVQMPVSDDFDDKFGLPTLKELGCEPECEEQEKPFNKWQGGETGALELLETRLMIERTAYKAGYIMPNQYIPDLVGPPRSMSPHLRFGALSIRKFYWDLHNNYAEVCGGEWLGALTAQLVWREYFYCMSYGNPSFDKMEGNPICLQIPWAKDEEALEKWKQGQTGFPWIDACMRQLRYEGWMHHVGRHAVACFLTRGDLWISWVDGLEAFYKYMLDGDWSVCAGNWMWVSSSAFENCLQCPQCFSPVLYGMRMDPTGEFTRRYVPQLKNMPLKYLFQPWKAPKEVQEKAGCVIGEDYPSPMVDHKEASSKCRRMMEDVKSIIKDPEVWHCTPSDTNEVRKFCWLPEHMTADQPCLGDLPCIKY

PdLCry^Y352D = molecular target: T5, PdLCry^Y352D (Platynereis dumerilii); assay: as above; conditions: both partners purified
T5 chain: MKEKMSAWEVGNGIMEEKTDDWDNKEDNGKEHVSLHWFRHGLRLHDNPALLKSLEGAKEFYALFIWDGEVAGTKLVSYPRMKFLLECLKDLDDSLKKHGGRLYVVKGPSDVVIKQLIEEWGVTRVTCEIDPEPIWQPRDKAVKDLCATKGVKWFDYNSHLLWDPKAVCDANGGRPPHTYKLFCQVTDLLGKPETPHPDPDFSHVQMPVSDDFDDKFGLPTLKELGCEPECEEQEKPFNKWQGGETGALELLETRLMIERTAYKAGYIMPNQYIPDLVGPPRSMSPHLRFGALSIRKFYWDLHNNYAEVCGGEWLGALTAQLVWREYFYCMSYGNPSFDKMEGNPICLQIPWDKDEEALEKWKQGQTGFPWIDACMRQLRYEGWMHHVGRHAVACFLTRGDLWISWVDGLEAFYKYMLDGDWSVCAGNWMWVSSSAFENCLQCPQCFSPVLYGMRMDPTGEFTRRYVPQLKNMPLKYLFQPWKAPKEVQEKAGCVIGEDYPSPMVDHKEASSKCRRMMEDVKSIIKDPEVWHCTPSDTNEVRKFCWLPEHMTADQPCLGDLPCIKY

Molecule: Cc1cc2nc3c(=O)[nH]c(=O)nc-3n(C[C@H](O)[C@H](O)[C@H](O)COP(=O)(O)OP(=O)(O)OC[C@H]3O[C@@H](n4cnc5c(N)ncnc54)[C@H](O)[C@@H]3O)c2cc1C [flavin adenine dinucleotide]
- UV/Vis spectroscopy of FAD photoreduction (PdLCry (L-CRY) [1]): both mutations lead to a less efficient FAD photoreduction under illumination conditions mimicking naturalistic sunlight
- cryo-EM structure of the complex, 2.6 A (PdLCry (L-CRY) [2]): We observe a near stochiometric occupancy of the ligand FAD
- UV/Vis spectroscopy of FAD photoreduction (PdLCry (L-CRY) [3]): both mutations lead to a less efficient FAD photoreduction under illumination conditions mimicking naturalistic sunlight

- percent of the protein monomeric [4]: > 90%
- stoichiometry N [5]: 2
- percent of the protein present as a dimer [6]: 80%
- stoichiometry N [6]: 2
Molecule: Platynereis dumerilii L-CRY (PdLCry), wildtype (natural protein)

- stoichiometry N (PdLCry^Y352A): 2
B1: PdLCry^Y352A (natural protein)
chain: MKEKMSAWEVGNGIMEEKTDDWDNKEDNGKEHVSLHWFRHGLRLHDNPALLKSLEGAKEFYALFIWDGEVAGTKLVSYPRMKFLLECLKDLDDSLKKHGGRLYVVKGPSDVVIKQLIEEWGVTRVTCEIDPEPIWQPRDKAVKDLCATKGVKWFDYNSHLLWDPKAVCDANGGRPPHTYKLFCQVTDLLGKPETPHPDPDFSHVQMPVSDDFDDKFGLPTLKELGCEPECEEQEKPFNKWQGGETGALELLETRLMIERTAYKAGYIMPNQYIPDLVGPPRSMSPHLRFGALSIRKFYWDLHNNYAEVCGGEWLGALTAQLVWREYFYCMSYGNPSFDKMEGNPICLQIPWAKDEEALEKWKQGQTGFPWIDACMRQLRYEGWMHHVGRHAVACFLTRGDLWISWVDGLEAFYKYMLDGDWSVCAGNWMWVSSSAFENCLQCPQCFSPVLYGMRMDPTGEFTRRYVPQLKNMPLKYLFQPWKAPKEVQEKAGCVIGEDYPSPMVDHKEASSKCRRMMEDVKSIIKDPEVWHCTPSDTNEVRKFCWLPEHMTADQPCLGDLPCIKY
modifications: FAD bound; dimer in dark / FAD bound; dimer in dark

- stoichiometry N (PdLCry^Y352D): 2
B2: PdLCry^Y352D (natural protein)
chain: MKEKMSAWEVGNGIMEEKTDDWDNKEDNGKEHVSLHWFRHGLRLHDNPALLKSLEGAKEFYALFIWDGEVAGTKLVSYPRMKFLLECLKDLDDSLKKHGGRLYVVKGPSDVVIKQLIEEWGVTRVTCEIDPEPIWQPRDKAVKDLCATKGVKWFDYNSHLLWDPKAVCDANGGRPPHTYKLFCQVTDLLGKPETPHPDPDFSHVQMPVSDDFDDKFGLPTLKELGCEPECEEQEKPFNKWQGGETGALELLETRLMIERTAYKAGYIMPNQYIPDLVGPPRSMSPHLRFGALSIRKFYWDLHNNYAEVCGGEWLGALTAQLVWREYFYCMSYGNPSFDKMEGNPICLQIPWDKDEEALEKWKQGQTGFPWIDACMRQLRYEGWMHHVGRHAVACFLTRGDLWISWVDGLEAFYKYMLDGDWSVCAGNWMWVSSSAFENCLQCPQCFSPVLYGMRMDPTGEFTRRYVPQLKNMPLKYLFQPWKAPKEVQEKAGCVIGEDYPSPMVDHKEASSKCRRMMEDVKSIIKDPEVWHCTPSDTNEVRKFCWLPEHMTADQPCLGDLPCIKY
modifications: FAD bound; dimer in dark / FAD bound; dimer in dark
